Test [1] deals with T1, Tag-free human IL6 recombinant protein (GenScript, Cat. No. Z03034) (human, UniProt P05231 30-212). The test is described as follows: ELISA. (An ELISA detects its analyte on a solid surface through an enzyme-linked reagent.)
The target of test [2] is T1, Tag-free human IL6 recombinant protein …. The test is described as follows: SPR (Biacore).

Positions count from the first letter of the chain named.

T1 sequence (P05231 30-212, one chain of several): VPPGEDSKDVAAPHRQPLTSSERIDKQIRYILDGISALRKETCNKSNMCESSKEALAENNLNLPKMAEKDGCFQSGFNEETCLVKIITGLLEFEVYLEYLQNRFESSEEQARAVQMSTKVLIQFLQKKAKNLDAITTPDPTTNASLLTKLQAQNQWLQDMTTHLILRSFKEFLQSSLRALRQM

B1: 61G1D8 (rat) (antibody, V domains shown)
VH: EVQLLESGGGLVQPGRSMKLSCAASGFTFSSFPMAWVRQTPSKALEWVATISPSGGTSYSRDSVKGRFTISRDNANSTLCLHMDSLKSEDTATYYCLRERIYNTYFDYWGQGVMVTVSS
VL: DIRMTHSPASLSASLGETVSIECLPSEDISSDLAWYQQKPGKSPQLLIYNANTLPNGVPSRFSGSRSGAQYFLKINSLQSEDVATYFCQQYDSYPYTFGTGTKLELK
For B1, the concentration for a half-maximal effect (EC50) (as a rule, the concentration at which the effect is half-maximal) in test [1] was determined as 0.0196 µg/mL. For the same molecule, in test [2], the Kd (in general, the free concentration of one partner at which half of the binding sites on the other are occupied at equilibrium, for simple one-to-one binding) was 230 pM.

B2: 29D6B5 (antibody, V domains shown)
VH: QVQLQQSGAELAEPGASVKMSCKASGYNFNNYWMHWVKQGPGQGLEWIGYIDPRTASIYYNQKFKDKATLTADKSSSTAYMQLSSLTSEDSAVYYCARILYGKYDVWGAGTTVIVSS
VL: DVVLTQTPLSLPVSLGNQASISCRSSQSLVDSNGNTYLHWYLQKPGQSPKVLIHKVSNRFSGVPDRFSGSGSGTDFTLKISRVEAEDLGVYFCSQSTHVPPTFGGGTKLEIK
For the molecule B2, in test [1], the EC50 was determined as 0.0231 µg/mL. Moreover, the dissociation constant Kd in test [2] came out at 1950 pM.

B3: 23A9H3 (antibody, V domains shown)
VH: QVQLQQSGAELAKPGASVKMSCKTSGYTFTNYWMHWVKQRPGQGLEWIGYVIPSTGYTDYNQSFKDKATLTADKSSNTAYMQVNSLTSEDSAVYYCASLLPGFAYWGQGTLVTVSA
VL: B2 VL with L4M, N17D, V51L, H54Y
In the case of B3, in test [1], the EC50 came out at 0.0163 µg/mL. Moreover, the Kd in test [2] was 8770 pM.

B4: 53A2F9 (rat) (antibody, V domains shown)
VH: QVQLKESGPGLVQPSQTLSLTCTVSGFSLTSHTVSWIRQPPGRGLEWMGKMWSNGDTDYDSAIRSRLSITRDTSKSQVFLKINSLQTEDTAMYFCARYYFSSYGGGYFDYWGQGVMVTVSS
VL: DTVLTQSPALAVSLGQRVTISCRASKSVSTYMHWYQQKSGQQPKLLIYSASNLESGVPSRFSGSGSGTDFTLTIDPVEADDIANYYCQQSDELPDTFGAGTKLELK
As to B4, the dissociation constant Kd in test [2] was found to be 0.0225 pM.

B5: 41A10B8 (antibody, V domains shown)
VH: EVKLEESGGGLVQPGGSMKLSCAASGFTFSDAWMDWVRQSPDKGLEWVAEIRSKTYHPATYYTKSVRGRFTISRDDSKSSVYLQMNNLGAEDTGIYYCTRPRYYGGYFDYWGQGTTLTVSS
VL: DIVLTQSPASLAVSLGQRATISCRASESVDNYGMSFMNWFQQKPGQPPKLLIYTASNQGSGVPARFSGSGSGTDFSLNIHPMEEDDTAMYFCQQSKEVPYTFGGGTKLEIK
Take B5: the concentration for a half-maximal effect (EC50) in test [1] came out at 0.018 µg/mL. Besides, in test [2], the dissociation constant (Kd) worked out at 84.7 pM.

B6: 49F10H6 (antibody, V domains shown)
VH: QVQLQQPGAELVKPGASVKMSCKASGYTFTNYIIHWIKQTPGQGLEWIGAIYPGNGDTSYSQKFKDKATLTADRSSSTAYMQLSSLTSEDSAVYYCARGDAGYSAWFAYWGQGTLVTVSA
VL: NIVLTQSPASLAVSLGQRATISCSASESVDSYGNNFMHWYQQRPGQPPKLLIYLASKLESGVPARFSGSGSRTEFTLTIDPVEAEDAATYYCQQNNEDPLTFGAGTKLELK
Take B6: the EC50 in test [1] came to 0.0153 µg/mL. In addition, in test [2], the Kd amounted to 265 pM.

The record behind these values is patent US20220396615A1 (published 2022).
